Source: doi:10.1101/2020.04.13.035477

Experiments:
Assay in all cases: SPR
[1] = molecular target: H. polygyrus Alarmin Release Inhibitor (HpARI), full-length (Heligmosomoides polygyrus)
[2] = molecular target: HpARI_CCP1/2 (truncation of HpARI lacking CCP3) (Heligmosomoides polygyrus)
[3] = molecular target: HpARI_CCP2/3 (truncation of HpARI lacking CCP1) (Heligmosomoides polygyrus)
Sequence of HpARI_CCP2/3 (truncation of HpARI lacking CCP1) (Heligmosomoides polygyrus) (A0A3P7XL18 126-297): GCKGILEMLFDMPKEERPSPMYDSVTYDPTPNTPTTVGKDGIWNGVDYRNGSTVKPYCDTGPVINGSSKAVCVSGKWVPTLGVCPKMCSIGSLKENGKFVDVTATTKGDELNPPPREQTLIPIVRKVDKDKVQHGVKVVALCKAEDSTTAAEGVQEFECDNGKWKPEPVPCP

Sequence of HpARI_CCP1/2 (truncation of HpARI lacking CCP3) (Heligmosomoides polygyrus) (A0A3P7XL18 65-211): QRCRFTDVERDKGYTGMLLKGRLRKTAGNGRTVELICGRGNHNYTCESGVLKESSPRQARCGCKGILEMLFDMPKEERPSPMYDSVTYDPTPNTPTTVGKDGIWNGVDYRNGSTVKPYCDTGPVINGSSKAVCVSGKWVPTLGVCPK

recombinant murine IL-33 (from UniProt Q8BVZ5 1-266) (ligand)
Kd [1]: 1.1 nM
koff [1]: 0.00015 s⁻¹
Kd [2]: 9.8 nM
koff [2]: 0.003 s⁻¹
Kd [3]: 1.4 nM
